This note sets out measurements from US20210047402A1 (TENEOBIO, published 2021).

T1: human CD22 (human, UniProt P20273 20-687, limits assumed)
T1 construct: also called SIGLEC-2; human CD22 protein
T1 sequence (looked up): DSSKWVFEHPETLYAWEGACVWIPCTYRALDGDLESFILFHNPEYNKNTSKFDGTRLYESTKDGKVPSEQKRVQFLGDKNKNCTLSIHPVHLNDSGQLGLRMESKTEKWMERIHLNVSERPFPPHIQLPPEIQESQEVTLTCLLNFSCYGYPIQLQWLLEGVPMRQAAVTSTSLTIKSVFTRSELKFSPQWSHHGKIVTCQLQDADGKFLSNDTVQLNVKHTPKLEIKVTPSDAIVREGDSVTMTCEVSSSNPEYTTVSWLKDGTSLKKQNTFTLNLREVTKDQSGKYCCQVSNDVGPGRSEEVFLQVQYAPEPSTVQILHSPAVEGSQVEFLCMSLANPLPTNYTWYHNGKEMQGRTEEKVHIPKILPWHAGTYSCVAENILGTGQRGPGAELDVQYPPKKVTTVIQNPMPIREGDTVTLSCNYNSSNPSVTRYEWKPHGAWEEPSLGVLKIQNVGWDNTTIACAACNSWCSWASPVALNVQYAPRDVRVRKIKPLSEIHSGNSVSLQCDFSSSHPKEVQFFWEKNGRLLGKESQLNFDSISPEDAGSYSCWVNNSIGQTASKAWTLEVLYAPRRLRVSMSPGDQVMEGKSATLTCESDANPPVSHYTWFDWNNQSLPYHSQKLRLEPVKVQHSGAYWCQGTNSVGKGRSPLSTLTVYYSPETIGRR

B1: anti-CD22 heavy chain-only antibody Clone ID 335311 (antibody, V domains shown)
VH: QLQLQESGPGLVKPSETLSLTCAVYGGSFSGYYWGWIRQPPGKGLEWIGHIYYSGATYYNPSLKNRVTISVDTSRNQFSLNLSSVTAADTAVYYCTREDSSSWRSRGQGTLVTVSS
notes: Heavy chain-only antibody (UniAb), no light chain
B2: anti-CD22 heavy chain-only antibody Clone ID 335333 (antibody, V domains shown)
VH: QLQLQESGPGLVKPSETLSLTCTVSGGSISSSSYYWGWIRQPPGKGLEWIGSIYYSGSTYYNPSLKSRVTISVDTSKNQFSLKLSSVTAADTAVYYCAREDSSSWRSRGQGTLVTVSS
notes: as for B1
B3: anti-CD22 heavy chain-only antibody Clone ID 335179 (antibody, V domains shown)
VH: QLQLQESGPGLVKPSETLSLTCTVSGGSISSSSYYWGWFRHPPGKGLDWIGSIHYSGSTYYNPSLKSRVTISVDTSRNQFSLNLSSVTAADTAVYYCTRDDSSNWRSRGQGTLVTVSS
notes: as for B1

The experiment addresses T1, human CD22. The experiment in a line: ELISA protein and cell-binding assays.
For B1, the binding result was “binds”.

B2: the binding result is given as “binds”.

B3: the binding result is given as “binds”.
